Results reported in article doi:10.1101/2022.09.16.508221 (bioRxiv, 2022).
Several values for one entry are separate records, joined by “and”; a condition that tells them apart may be missing. Identical values can stand only once.

Key:
SEC = target: the molecule itself; test: SEC
mass photometry = target: the molecule itself; test: mass photometry

B1: Hermes transposase (full-length, with the mutations Q2E and K128G) (enzyme, Musca domestica, UniProt Q25438 1-612, looked up)
chain: MEKMDNLEVKAKINQGLYKITPRHKGTSFIWNVLADIQKEDDTLVEGWVFCRKCEKVLKYTTRQTSNLCRHKCCASLKQSRELKTVSADCKKEAIEKCAQWVVRDCRPFSAVSGSGFIDMIKFFIKVGAEYGEHVNVEELLPSPITLSRKVTSDAKEKKALISREIKSAVEKDGASATIDLWTDNYIKRNFLGVTLHYHENNELRDLILGLKSLDFERSTAENIYKKLKAIFSQFNVEDLSSIKFVTDRGANVVKSLANNIRINCSSHLLSNVLENSFEETPELNMPILACKNIVKYFKKANLQHRLRSSLKSECPTRWNSTYTMLRSILDNWESVIQILSEAGETQRIVHINKSIIQTMVNILDGFERIFKELQTCSSPSLCFVVPSILKVKEICSPDVGDVADIAKLKVNIIKNVRIIWEENLSIWHYTAFFFYPPALHMQQEKVAQIKEFCLSKMEDLELINRMSSFNELSATQLNQSDSNSHNSIDLTSHSKDISTTSFFFPQLTQNNSREPPVCPSDEFEFYRKEIVILSEDFKVMEWWNLNSKKYPKLSKLALSLLSIPASSAASERTFSLAGNIITEKRNRIGQQTVDSLLFLNSFYKNFCKLDI
In the case of B1, the “stoichiometry N” value (SEC) is reported as 8 and 6 and the “stoichiometry N” value (mass photometry) is reported as 2.
